Laboratory results as given in patent US12077763B2, “RNA-based control of powdery mildew” (Greenlight Biosciences, Inc., priority 2021, dated 2024).

B1: GS1873: dsRNA trigger SEQ ID NO 153; gene target Probable serine/threonine-protein kinase fhkC (nucleic acid)
chain: CACATCGAGATATAAAACCCGAAAATATACTTCTCATGAATAGAACTCCTACTATTAAATTAGGTGATTTTGGCTTGGCCAAGATCGTTGGTGAGGAATCATTCACAACAAGCTTATGTGGAACACCCAGTTATGTTGCACCAGAGATCCTTGAAGACTCAGATAATCGGCGTTACAATCGAGCTGTTGATATTTGGGCTCTAGGTGTTGTTCTTTACATTTGCCTCTGTGGCTTCCCGCCATTCTCTGATGAATTGACCAGTAATGATTATCCTTACACTCTTGTCCAGCAGATTAAAATTGGTCAGTTCGACTTCCCATCGCCATATTGGGATAATATAGGAGACTCAGCTCTTGACCTCATTGACAAAATGTTAACAGTAGATGTTAACAAACGCATTAATATTGATCAATGTCTTGAACATCCATGGCTAACTCAAAGAGAATCAACGACTTTGCCAGGTGATTACTCTGAAGTTCTTGACGAACTT
B2: GS1884: dsRNA trigger SEQ ID NO 187; gene target Peptidyl-prolyl cis-trans isomerase ssp-1 (nucleic acid)
chain: TAATACTTCATCTGGAAGCCATCGAGTTTGCTTTTTATTATCTGAATTTTTGAGGCATTAAACTACAATACCTATTAAGGTTCAATTCAACGTTACAGTATGTAGCAGTAAATATCATTTTTGGTATAAGAATAAAAATATTCAAATTTTTACCGAAAAAAATGAAGCAGTAAGTCATATTTCTGGGTCAAGTCTCTGTAAGTCTTGCGCATCAAGCTTGCAATTGAGACTCCAAATGTGACTGGATATGTATATATATATATATATGGTGTTATAGTTGTCAAATCGAATCTATTCTATTCTTTGAATCAGATGTAGACCAGATGCTGTTTCTATGATTTGACTCATTTCTCCAACTTTGAGTTCGAATGCAGCATCTTCGAATTCTTTCTGCATATCACCTCTACCAAAGAAACCAAGGTCACCTTGTTTTTTAGCACTATTGCAATCAGACTC
B3: GS1874: dsRNA trigger SEQ ID NO 120; gene target eka-like_protein (nucleic acid)
chain: CTAGAGCAGCCACGTGTAGCATGAAACCCATGACAACGTTTGCATTGTTGTATTGGTTGGCATGGTTTGTACAGTATAGCGACTCCTGATTCGTCGAATAGTCGGAATCCGGGTCATGGAGCTTGTTCTCGGGAAAAATGTGCCAGCCAAGAGCGATGTGGAGCACCAGAACGAGTCTTACCATGTACCCTAACCATCTTAGGCGCAAAGTTAGTGACTTTGATAATTTCGGCTACAAGGTTAGTATCGTCGACTGTCACACTTCCACTAGAAGTTTGACGGGCAACGGGAACAGTTGCAATACGATATGTAATAAGATCAGACGCCGGTTCTAGCTTGGCACCCTGAAAAGATATTCTATCACTGTCATTTAGTAGCTTTTGCCTTATCTCCTTTTCTTTGATAGTAAGTGCGAAGCCAGTGGGGGTTCGAGCGATGAGCGTCACATCAGATGGTACACAATTTAGATTTTTGCACAATATTT
B4: GS1876: dsRNA trigger SEQ ID NO 210; gene target Uncharacterized transcriptional regulatory protein YKL222C (nucleic acid)
chain: CGCGTTCATAAAATATATCTTCATAATCAGCGTATTTAGGTGAAAGTGTAGTAGCCAATGTCCACATGGCATAGCATAGACAAATTGGAGGACGGGTCTGAATTGGACGTTCCAAAGACATGTAAAACCGGGCTTGATGTATGATGGGCATTGAAGGGTGATAGAGAGTGAAGTAGATATGATATAATTCTTTAATCATATAATCAGGCGGTAATGGTTCTTGAAGACCTAAGCTTAGTAGCTCTTTATTGATATTTGATGTAGTTTCTTTAGGCATCTGGGAGAAGCCTGAAATAGGTGGCGACGTTTCAATGGATGTAAGAAGAGGCCTACCATCAATTGCCAAATTCAAATCTATACCCATATTCCAATTTCTTTCGAGCCGGGGAGCTGCAGCATCGGGACTTATGATATCGCATTTTCCTTCCGAGTTGAGTCGAGTCTCCAATTGAGCTAGCCTAGCTTCAATTTCTTTTTCTTT

System: E. necator
Assay: Leaf disc assay, dry inoculum (settling tower), decrease in disease severity / hyphal growth (Example 2)
Conditions: decrease in disease severity (hyphal growth) relative to untreated control; time point 1 (untreated control hyphal growth ≥50%); value ± SE

Molecule	% decrease =/− SE TP1
B1	4 ± 4%
B2	12 ± 4%
B3	25 ± 4%
B4	20 ± 6%

Same assay, conditions: decrease in disease severity (hyphal growth) relative to untreated control; time point 2; value ± SE

Molecule	% decrease =/− SE TP2
B3	14 ± 5%
B4	10 ± 8%
